# In publication PMC5818494, “Specific Recognition of Arginine Methylated Histone Tails by JMJD5 and JMJD7” (Scientific Reports, 2018):
# Like-named read-outs stand apart in the source and are kept apart here.
# Tests used:
# calf bulk histone [1] = test: SPR; Biacore; 10 μg/ml calf bulk histone in 50 mM sodium acetate pH 5.0 coated onto a CM5 chip; enzyme injected at different concentrations; room temperature; non-linear binding kinetics, ranges estimated
# calf bulk histone [2] = test: as above; remark: listed apart in the source
# [3] = target: histone H3 peptide pH3R2me2a N-terminal tail peptide (Homo sapiens) (UniProt P68431); test: fluorescence polarization; details: cited from earlier work
# [4] = target: histone H3 peptide (pH3) N-terminal tail peptide (Homo sapiens) (UniProt P68431); test: fluorescence polarization; details: cited from earlier work
# [5] = target: histone H3 peptide pH3K4(me2) N-terminal tail peptide (Homo sapiens) (UniProt P68431); details: cited from earlier work
# c-JMJD5 catalytic core, sequence (Q8N371 183-416): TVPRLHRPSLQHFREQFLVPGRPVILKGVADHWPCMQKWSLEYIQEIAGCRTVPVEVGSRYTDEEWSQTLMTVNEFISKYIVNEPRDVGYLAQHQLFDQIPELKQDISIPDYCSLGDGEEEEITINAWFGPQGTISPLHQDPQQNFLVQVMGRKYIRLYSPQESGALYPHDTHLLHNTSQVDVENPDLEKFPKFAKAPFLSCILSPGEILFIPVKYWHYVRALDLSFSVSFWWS
# JMJD7 (mouse), JMJD7 protein alone generated from GST-JMJD7 fusion protein, sequence (P0C872 whole entry, the tested form may be a part): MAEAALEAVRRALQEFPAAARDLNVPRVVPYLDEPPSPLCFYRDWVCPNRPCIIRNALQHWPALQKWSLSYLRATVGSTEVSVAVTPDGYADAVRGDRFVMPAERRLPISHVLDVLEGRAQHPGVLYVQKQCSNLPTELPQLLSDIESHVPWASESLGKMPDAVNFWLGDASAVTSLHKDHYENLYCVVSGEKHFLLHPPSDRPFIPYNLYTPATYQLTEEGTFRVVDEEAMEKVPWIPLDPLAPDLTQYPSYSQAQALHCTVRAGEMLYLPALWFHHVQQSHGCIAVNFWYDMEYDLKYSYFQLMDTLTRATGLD
# c-JMJD5 (JMJD5 residues 183–416, lacking the N-terminal domain), sequence (Q8N371 183-416): as the sequence (Q8N371 183-416) above
Kd (calf bulk histone [1]) [µM],Kd (calf bulk histone [2]) [µM],Substance,Kd [3] [µM],Kd [4] [µM],Kd [5] [µM]
1 to 10,1 to 50,"JMJD7 (mouse), JMJD7 protein alone generated from GST-JMJD7 fusion protein (from UniProt P0C872 1-316) (enzyme)",,,
1 to 10,1 to 50,"c-JMJD5 (JMJD5 residues 183–416, lacking the N-terminal domain) (from UniProt Q8N371 183-416) (domain or fragment)",,,
,,c-JMJD5 catalytic core (from UniProt Q8N371),0.112,7,4
